Measurements published in paper PMC10516938, “Conformational dynamics of cohesin/Scc2 loading complex are regulated by Smc3 acetylation and ATP binding” (Nature Communications, 2023).

Assays:
Test in all cases: cross-linking; in vivo BMOE cross-link of cysteine pairs in exponentially grown yeast cells (on ice, 6 min); Scc1-PK immunoprecipitated, western blot
Conditions in all cases: partners not purified
Smc3 K38I R1222C = target: T1, Smc3 K38I R1222C (S. cerevisiae, UniProt P47037 1-1230, K38I | R1222C)
T1 construct: source: S. cerevisiae W303, in vivo, whole-cell extract
T1 sequence (looked up): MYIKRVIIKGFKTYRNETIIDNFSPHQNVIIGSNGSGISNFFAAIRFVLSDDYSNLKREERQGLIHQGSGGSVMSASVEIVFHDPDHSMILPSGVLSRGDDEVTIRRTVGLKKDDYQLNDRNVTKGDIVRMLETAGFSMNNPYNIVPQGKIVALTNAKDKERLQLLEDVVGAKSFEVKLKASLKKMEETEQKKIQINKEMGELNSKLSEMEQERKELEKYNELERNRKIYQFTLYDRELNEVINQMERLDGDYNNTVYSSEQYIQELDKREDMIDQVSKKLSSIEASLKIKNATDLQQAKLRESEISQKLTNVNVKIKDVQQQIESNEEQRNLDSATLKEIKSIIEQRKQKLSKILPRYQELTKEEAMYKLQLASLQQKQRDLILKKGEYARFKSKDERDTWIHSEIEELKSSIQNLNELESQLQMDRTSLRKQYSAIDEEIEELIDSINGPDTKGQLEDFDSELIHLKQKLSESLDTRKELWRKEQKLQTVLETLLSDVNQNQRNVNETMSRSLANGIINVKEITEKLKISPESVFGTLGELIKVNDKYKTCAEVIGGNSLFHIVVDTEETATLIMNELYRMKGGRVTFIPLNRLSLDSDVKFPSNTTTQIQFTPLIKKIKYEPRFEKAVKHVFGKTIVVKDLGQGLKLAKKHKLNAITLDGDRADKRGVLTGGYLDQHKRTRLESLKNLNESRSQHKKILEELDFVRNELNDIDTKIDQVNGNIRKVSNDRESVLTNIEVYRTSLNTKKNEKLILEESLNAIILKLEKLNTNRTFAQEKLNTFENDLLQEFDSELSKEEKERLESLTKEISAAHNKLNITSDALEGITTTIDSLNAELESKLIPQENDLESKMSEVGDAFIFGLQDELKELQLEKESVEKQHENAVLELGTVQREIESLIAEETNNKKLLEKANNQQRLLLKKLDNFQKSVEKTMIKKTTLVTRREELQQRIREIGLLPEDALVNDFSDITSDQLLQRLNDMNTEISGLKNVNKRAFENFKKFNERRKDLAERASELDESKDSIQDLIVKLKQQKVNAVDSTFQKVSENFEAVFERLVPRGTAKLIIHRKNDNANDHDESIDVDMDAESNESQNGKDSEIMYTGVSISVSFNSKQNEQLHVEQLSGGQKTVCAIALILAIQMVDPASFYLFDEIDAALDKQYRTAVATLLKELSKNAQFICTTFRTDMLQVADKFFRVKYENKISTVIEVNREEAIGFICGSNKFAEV

Smc3^QQ R1222C = target: T2, Smc3^QQ R1222C (S. cerevisiae, UniProt P47037 1-1230, K112Q | K113Q | R1222C)
T2 construct: Smc3, S. cerevisiae; source: S. cerevisiae W303, in vivo, whole-cell extract
T2 sequence (looked up): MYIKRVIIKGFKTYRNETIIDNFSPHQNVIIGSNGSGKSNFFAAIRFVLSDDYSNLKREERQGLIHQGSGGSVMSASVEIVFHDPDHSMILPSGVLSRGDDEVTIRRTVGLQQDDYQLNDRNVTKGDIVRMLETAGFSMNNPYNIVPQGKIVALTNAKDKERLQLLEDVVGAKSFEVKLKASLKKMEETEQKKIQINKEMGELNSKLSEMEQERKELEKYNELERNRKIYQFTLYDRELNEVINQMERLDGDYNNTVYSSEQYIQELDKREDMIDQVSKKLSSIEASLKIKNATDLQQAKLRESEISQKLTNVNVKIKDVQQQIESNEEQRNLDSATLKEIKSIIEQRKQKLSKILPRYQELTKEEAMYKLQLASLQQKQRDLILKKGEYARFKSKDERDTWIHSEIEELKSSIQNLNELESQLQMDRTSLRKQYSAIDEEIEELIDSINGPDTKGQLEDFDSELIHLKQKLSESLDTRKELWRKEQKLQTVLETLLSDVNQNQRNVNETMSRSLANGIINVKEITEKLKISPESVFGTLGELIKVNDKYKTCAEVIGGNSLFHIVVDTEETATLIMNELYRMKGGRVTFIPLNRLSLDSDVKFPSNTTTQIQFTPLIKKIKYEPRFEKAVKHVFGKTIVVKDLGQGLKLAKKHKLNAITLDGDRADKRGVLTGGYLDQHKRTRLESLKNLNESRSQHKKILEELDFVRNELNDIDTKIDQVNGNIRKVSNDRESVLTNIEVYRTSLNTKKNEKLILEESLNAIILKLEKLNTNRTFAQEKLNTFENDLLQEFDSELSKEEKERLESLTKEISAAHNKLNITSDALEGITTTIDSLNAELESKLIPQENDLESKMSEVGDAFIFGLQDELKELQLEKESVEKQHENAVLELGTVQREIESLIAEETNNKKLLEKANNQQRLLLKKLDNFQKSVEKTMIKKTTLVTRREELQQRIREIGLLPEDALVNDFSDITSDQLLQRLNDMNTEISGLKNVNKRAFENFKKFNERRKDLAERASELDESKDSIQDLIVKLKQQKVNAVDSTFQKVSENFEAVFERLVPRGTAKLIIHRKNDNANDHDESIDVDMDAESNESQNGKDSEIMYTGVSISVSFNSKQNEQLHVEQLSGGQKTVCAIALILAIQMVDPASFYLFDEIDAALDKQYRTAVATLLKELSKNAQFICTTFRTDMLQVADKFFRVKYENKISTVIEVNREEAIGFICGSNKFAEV

Smc3 R1222C = target: T3, Smc3 R1222C (S. cerevisiae, UniProt P47037 1-1230, R1222C)
T3 construct: Smc3, S. cerevisiae; source: S. cerevisiae W303, in vivo, whole-cell extract
T3 sequence (looked up): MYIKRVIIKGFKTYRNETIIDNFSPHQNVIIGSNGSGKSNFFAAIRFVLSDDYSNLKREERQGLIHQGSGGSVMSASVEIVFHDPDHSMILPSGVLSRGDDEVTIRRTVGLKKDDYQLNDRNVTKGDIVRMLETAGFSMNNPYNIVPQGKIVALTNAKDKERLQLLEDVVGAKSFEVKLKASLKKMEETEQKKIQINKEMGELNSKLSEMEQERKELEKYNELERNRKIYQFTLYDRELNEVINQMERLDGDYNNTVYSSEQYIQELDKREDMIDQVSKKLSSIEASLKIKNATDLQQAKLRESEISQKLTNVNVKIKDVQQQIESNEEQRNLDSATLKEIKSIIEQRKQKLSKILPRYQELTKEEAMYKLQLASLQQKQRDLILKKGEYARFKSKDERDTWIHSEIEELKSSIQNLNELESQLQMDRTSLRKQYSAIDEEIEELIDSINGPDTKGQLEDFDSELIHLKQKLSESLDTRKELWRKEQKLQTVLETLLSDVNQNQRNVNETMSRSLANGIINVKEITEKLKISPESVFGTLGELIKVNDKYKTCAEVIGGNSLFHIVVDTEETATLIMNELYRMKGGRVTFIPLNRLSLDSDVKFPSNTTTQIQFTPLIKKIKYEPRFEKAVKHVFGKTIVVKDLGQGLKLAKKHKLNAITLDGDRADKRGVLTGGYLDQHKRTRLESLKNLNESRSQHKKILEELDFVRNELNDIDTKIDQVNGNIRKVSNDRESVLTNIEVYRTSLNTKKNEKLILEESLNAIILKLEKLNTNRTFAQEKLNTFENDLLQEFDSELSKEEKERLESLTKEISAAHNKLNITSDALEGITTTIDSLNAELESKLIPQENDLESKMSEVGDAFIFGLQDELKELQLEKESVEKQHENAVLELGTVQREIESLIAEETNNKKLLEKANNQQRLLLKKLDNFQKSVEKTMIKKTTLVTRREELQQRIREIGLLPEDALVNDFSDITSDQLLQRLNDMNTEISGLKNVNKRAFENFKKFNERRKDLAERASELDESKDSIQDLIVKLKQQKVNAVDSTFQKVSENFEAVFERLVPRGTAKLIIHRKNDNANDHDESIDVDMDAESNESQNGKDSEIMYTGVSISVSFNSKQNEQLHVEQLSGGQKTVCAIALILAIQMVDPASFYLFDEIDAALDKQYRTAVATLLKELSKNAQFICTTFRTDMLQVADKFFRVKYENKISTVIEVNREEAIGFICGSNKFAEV

crosslinking efficiency (Smc3 K38I R1222C): 5%
crosslinking efficiency (Smc3^QQ R1222C): 24%
crosslinking efficiency (Smc3 R1222C): ~23%
B1: Smc1 N1192C (natural protein, S. cerevisiae, UniProt P32908 1-1225, looked up)
chain: MGRLVGLELSNFKSYRGVTKVGFGESNFTSIIGPNGSGKSNMMDAISFVLGVRSNHLRSNILKDLIYRGVLNDENSDDYDNEGAASSNPQSAYVKAFYQKGNKLVELMRIISRNGDTSYKIDGKTVSYKDYSIFLENENILIKAKNFLVFQGDVEQIAAQSPVELSRMFEEVSGSIQYKKEYEELKEKIEKLSKSATESIKNRRRIHGELKTYKEGINKNEEYRKQLDKKNELQKFQALWQLYHLEQQKEELTDKLSALNSEISSLKGKINNEMKSLQRSKSSFVKESAVISKQKSKLDYIFKDKEKLVSDLRLIKVPQQAAGKRISHIEKRIESLQKDLQRQKTYVERFETQLKVVTRSKEAFEEEIKQSARNYDKFKLNENDLKTYNCLHEKYLTEGGSILEEKIAVLNNDKREIQEELERFNKRADISKRRITEELSITGEKLDTQLNDLRVSLNEKNALHTERLHELKKLQSDIESANNQEYDLNFKLRETLVKIDDLSANQRETMKERKLRENIAMLKRFFPGVKGLVHDLCHPKKEKYGLAVSTILGKNFDSVIVENLTVAQECIAFLKKQRAGTASFIPLDTIETELPTLSLPDSQDYILSINAIDYEPEYEKAMQYVCGDSIICNTLNIAKDLKWKKGIRGKLVTIEGALIHKAGLMTGGISGDANNRWDKEEYQSLMSLKDKLLIQIDELSNGQRSNSIRAREVENSVSLLNSDIANLRTQVTQQKRSLDENRLEIKYHNDLIEKEIQPKITELKKKLDDLENTKDNLVKEKEALQNNIFKEFTSKIGFTIKEYENHSGELMRQQSKELQQLQKQILTVENKLQFETDRLSTTQRRYEKAQKDLENAQVEMKSLEEQEYAIEMKIGSIESKLEEHKNHLDELQKKFVTKQSELNSSEDILEDMNSNLQVLKRERDGIKEDIEKFDLERVTALKNCKISNINIPISSETTIDDLPISSTDNEAITISNSIDINYKGLPKKYKENNTDSARKELEQKIHEVEEILNELQPNARALERYDEAEGRFEVINNETEQLKAEEKKILNQFLKIKKKRKELFEKTFDYVSDHLDAIYRELTKNPNSNVELAGGNASLTIEDEDEPFNAGIKYHATPPLKRFKDMEYLSGGEKTVAALALLFAINSYQPSPFFVLDEVDAALDITNVQRIAAYIRRHRNPDLQFIVISLKCTMFEKSDALVGVYRQQQENSSKIITLDLSNYAE
notes: Smc1, S. cerevisiae; source: S. cerevisiae W303, in vivo, whole-cell extract
